According to US20210380703A1 (RIGEL PHARMACEUTICALS, published 2021):

Tests used:
[1] = target: T1, biotinylated goat anti-human kappa light chain; test: ELISA, positive control
T1 construct: positive control of the ELISA
Outline: (§1)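 Monoclonal antibodies were first applied to human or mouse ACVR2A, alongside biotinylated goat anti-human kappa light chain (positive control) and human Fc (negative control); binding was then determined by ELISA.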

human ACVR2A = target: T2, human ACVR2A (human, UniProt P27037 20-135, limits assumed); test: ELISA
T2 construct: coated antigen of the initial ELISA; also called activin receptor, type II A
Outline: as §1

mouse ACVR2A = target: T3, mouse ACVR2A (mouse, UniProt P27038 20-135, limits assumed); test: ELISA
T3 construct: coated antigen of the initial ELISA
Outline: as §1
Also: test concentration or dose not given here.

T3 sequence (P27038 20-135 limits assumed): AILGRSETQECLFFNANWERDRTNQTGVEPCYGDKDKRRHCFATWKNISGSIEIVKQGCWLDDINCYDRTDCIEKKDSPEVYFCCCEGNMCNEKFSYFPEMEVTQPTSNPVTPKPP
T2 sequence (P27037 20-135 limits assumed): as the sequence (P27038 20-135 limits assumed) above, with R20K, I73V counted along it

optical density [1] [OD]	optical density (human ACVR2A) [OD]	optical density (mouse ACVR2A) [OD]	Binder
3.58	2.41	2.54	368_H02 (antibody, V domains shown, Group III) VH: EVQLLESGGGLVQPGGSLRLSCAASGFTFSSYGMNWVRQAPGKGLEWVAGINYNSGYTSYADSVKGRFTISRDNSKNTLYLQMNSLRAEDTAVYYCARGANWHDTALDYWGQGTLVTVSS VL: DIQMTQSPSSLSASVGDRVTITCRASQSIVTYLNWYQQKPGKAPKLVIYAATSRASGVPSRFSGSGSGTDFTLTISSLQPEDFATYYCQQSYESPLTFGGGTKVEIK
3.42	3.55	3.56	369_A07 (antibody, V domains shown, Group III) VH: EVQLLESGGGLVQPGGSLRLSCAASGFTFSSYSMNWVRQAPGKGLEWVAGINYNGGYKGYADSVKGRFTISRDNSKNTLYLQMNSLRAEDTAVYYCARGANWHDTALDYWGQGTLVTVSS VL: DIQMTQSPSSLSASVGDRVTITCRASQSILSYLNWYQQKPGKAPKLVIYAATSRASGVPSRFSGSGSGTDFTLTISSLQPEDFATYYCQQSYESPLTFGGGTKVEIK
3.61	3.28	3.55	369_D03 (antibody, V domains shown, Group III) VH: EVQLLESGGGLVQPGGSLRLSCAASGFTFSSYSMNWVRQAPGKGLEWVSGINYNGGYTSYADSVKGRFTISRDNSKNTLYLQMNSLRAEDTAVYYCARGANWHDTHLDYWGQGTLVTVSS VL: DIQMTQSPSSLSASVGDRVTITCRASQSILTYLNWYQQKPGKAPKLVIYAATSRASGVPSRFSGSGSGTDFTLTISSLQPEDFATYYCQQSYENPLTFGGGTKVEIK
3.34	1.95	2.2	368_H05 (antibody, V domains shown, Group III) VH: EVQLLESGGGLVQPGGSLRLSCAASGFTFSSYSMNWVRQAPGKGLEWVANINYNGGYKSYADSVKGRFTISRDNSKNTLYLQMNSLRAEDTAVYYCARGANWHDTHLDYWGQGTLVTVSS VL: DIQMTQSPSSLSASVGDRVTITCRASQSIVSYVNWYQQKPGKAPKLVIYATTSRASGVPSRFSGSGSGTDFTLTISSLQPEDFATYYCQQSYESPLTFGGGTKVEIK
3.02	2.54	2.72	369_C05 (antibody, V domains shown, Group III) VH: EVQLLESGGGLVQPGGSLRLSCAASGFTFDSYSMNWVRQAPGKGLEWVAGINYNGGYTSYADSVKGRFTISRDNSKNTLYLQMNSLRAEDTAVYYCARGANWHDTALDYWGQGTLVTVSS VL: DIQMTQSPSSLSASVGDRVTITCRASQSISSYVNWYQQKPGKAPKLVIYATTSRHSGVPSRFSGSGSGTDFTLTISSLQPEDFATYYCQQSYNSPLTFGGGTKVEIK
3.26	3.07	2.91	369_D07 (antibody, V domains shown, Group III) VH: EVQLLESGGGLVQPGGSLRLSCAASGFTFSSYGMNWVRQAPGKGLEWVSGINYNGGYKSYADSVKGRFTISRDNSKNTLYLQMNSLRAEDTAVYYCARGANWHDTHLDYWGQGTLVTVSS VL: DIQMTQSPSSLSASVGDRVTITCRASQSIVSYLNWYQQKPGKAPKLVIYAATSRASGVPSRFSGSGSGTDFTLTISSLQPEDFATYYCQQSYDLPLTFGGGTKVEIK
3.44	2.78	3.06	369_B05 (antibody, V domains shown, Group III) VH: EVQLLESGGGLVQPGGSLRLSCAASGFTFDSYSMNWVRQAPGKGLEWVSGINYNGGYKSYADSVKGRFTISRDNSKNTLYLQMNSLRAEDTAVYYCARGANWHDTHLDYWGQGTLVTVSS VL: DIQMTQSPSSLSASVGDRVTITCRASQSIISYLNWYQQKPGKAPKLLIYAATSLASGVPSRFSGSGSGTDFTLTISSLQPEDFATYYCQQSYDTPLTFGGGTKVEIK
